In the domain aggregation screens of Martell et al. (2025):

Assay: soluble fraction after stress (log2 fold change); higher = more stays soluble; pooled small domains, quantitative proteomics
Settings: stress: pH 4
In short: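 Pooled custom libraries of small protein domains were stressed at pH 4 and then measured by high-throughput quantitative proteomics. The fold change in the amount of each domain that stays soluble after the acid stress serves as a measure of aggregation propensity. Fold changes are given on a log2 scale, and higher values mean more of the domain stayed soluble.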

HMTREAILDTAEELLQRRGYNAFSYHHIAVQLGIRNAAIHYHFPAKEDLGIELVSRFRIRLAE
soluble fraction (log2): -0.238

HMKLSNELLNAIMLIKKGIRNPTSLAQRLNTDTQYAKNLLEHLKMTGLINEHSRLTSRGLDIFHQK
soluble fraction (log2): -0.295

HMDFYIVLGVDRAASVSDVKRAYRRLARKYHPDINPGDREAEAFFLRVTEAYETLIDPDRRQDYDVNG
soluble fraction (log2): -1.31

HMYFMDEETWESKKTLLNDWYEANPEYADRRAISDGLFKIGDLQPDFRRRHWGSIGVIFADIPNSPMG
soluble fraction (log2): -1.37

HMEIFYSARAWAKLNDLVATRTYLQHLGAIAGRIGRSEGLSPDRIPDGRDGAVNGWPLWVWDRAYAEVS
soluble fraction (log2): -0.245

HMDEWDDGDKPKLKITLYADDDYYFASGFSKSSVSLSGSDGTVTSVSRSSSDTLIVYVTLDALD
soluble fraction (log2): -0.845

HMDKGQRGWINLVSVPTARVIIDGYDTGHETPLYGYEVERGKRKVTLISLDGTYERTYEIRIEPGTTTRVR
soluble fraction (log2): -0.947

HMQPGDRVDALIVGVSGEHVFLDVGGKSEGVMAAAELRNEAGELSAAEGDRVQVYLLSNRNGELIFTA
soluble fraction (log2): -0.283

HMFMVAGHLSEKNGYFYAVINYNDSLGNRKTKWMSTGLTVKGNKKRAEAILAEKRRTFQPDEPV
soluble fraction (log2): 0.129

HMKSNESAELGERMLNKALLALHTDSSKISDTQWQKLLRDYGAKNKQEILTDIGLGKRLNVMVAHQLMAMG
soluble fraction (log2): 0.0391

HMGYDDVIVINGKNETYGFPTKVEDDPVLSLVIKGDRSIDYAEERRLFYVAMTRTKNRVFFVAP
soluble fraction (log2): -0.803

HMIQIGEQIRYYRTKIGISQEALALMADINPAYIGQIERGIKSPTVNTIKKIANAMGINLHTLFT
soluble fraction (log2): -0.434

HMTGEERRMNTADLYRRRGMELFKRKIYVDAIDSLKVSLEYEDNATTRYYLDLATKRYQDLKIS
soluble fraction (log2): -0.0891

HMKRELFVEPGMRLEHTPSKTSGPVVSFIEGVIVVIKDQLGSEHRFDPVPGFFRHEGDLVALRSPLL
soluble fraction (log2): 0.044

HMTLNQEELMGKTEAILFAGGEPVSLDRIAQVLGVRTPVIDSIVSALQEKYNTPTSGIQLMRL
soluble fraction (log2): -0.467

HMNKYYQQLLQADPTGFIDPFKDLGTYDSRLNTFKEPVSELLNPFSGRPYSKIWQKRIETMREIFISYIKS
soluble fraction (log2): -0.213

HMDENVVLRKVAREAFVIEYVRGIRAIDPGIGGPKLWLMYKREFGDNDTVGRDTFEDILDRNNLKVRI
soluble fraction (log2): -0.363

HMFEQFEVENLQELQQEWGDKFNHNLEMARRAFMNFATPEAVKVLEETGMGNHPELLKVFARIGEVLAED
soluble fraction (log2): -1.22

HMDRRIDIANAVKTALGSLPERQKTAIVLVHYEGFSGAETAKLLGISVEAVESLLARARRNLRQTLGP
soluble fraction (log2): -0.586

HMRFQGKISDWNDEKGYGFVEPNGGGTRAFVHIKSFTDLPRRPINGDIIIYETTTDEKNRVQANNISFTR
soluble fraction (log2): -0.163

HMDSGLLSAREREVAGLVLSGMTYAEIGEAIFISPRTAEHHIARIRRRLGATSRTDLIAKLQAIVGID
soluble fraction (log2): -1.42

HMSSARKVTVRGVRELPGIFMEKAEILDDGVRFFYRGEMEKLIGALQGLPIRDLTITEPDLEEVFLHFY
soluble fraction (log2): -1.43

HMDYKLDVNFPEMYLEQIPAEKRAALIQILEQDPRPSYQKDPVRIYGMSYAGMEIHFRVDKETLYVTEVER
soluble fraction (log2): -0.0453

HMRDTDAEVTYKLNEPFKTMGSVSVEGKVLEFAGSKWFARAAEFASNTEVYPLAKNRVRLTFTFHGLTAP
soluble fraction (log2): 0.0243

HMQKLNIEEQIVYDIIFKNKELSANEIQIKSGIKTSILNALLINLEIKQYIKLKFGNFYEIK
soluble fraction (log2): -1.63

HMSDTFTITTESGRIDKIITAHETTHTRSQVQKWLQDGLVTVNGNPVKANFKVTAGDVVTVTIPEVK
soluble fraction (log2): -0.0373

HMNMPYGTVKWFNDAKGFGFIAPEDGSADVFVHFSAINSKGFRSLQEGQRVSYEVTTGPKGAQAAGVTPVT
soluble fraction (log2): -0.91

HMPNILLSVKDASVAISVSSKMVRLLIASGRLKAVNLGKRMTRISLQELTDFAQRQGGNVVLP
soluble fraction (log2): -0.514

HMARTTIATPWDKINDLLQGGLGNGDFGLIFGNPGGGKSWSLVALGGFAVKLGYNVIHYTLE
soluble fraction (log2): -1.35

HMLTLTNREKQVLVYIAKGHQVAQIAYELKLSGHTINGYIKTIYQKLHISSRAEAALLAQQYGL
soluble fraction (log2): -0.138

HMAIGTDPETGISVVADGTDFIWTRSGATSTIFLRLDSENSYILNVKQGDFEVIDYELGEGQENAINIDQS
soluble fraction (log2): -0.463

HMDRERFIKLGREIARAAFENVGKKATDKVLNSAAKKLRLEDGDEVLARLGSAEIEARSVVQAVYPDLI
soluble fraction (log2): 0.336

HMKEPPTLEEIKNYFASKLSTELESEKFFNYFESNGWLVGGKTPMKNWQSAANNWLINMSKFN
soluble fraction (log2): -0.323

HMTPTPQQNNILVGQTGTTLTRLAPMGKVRVGEVTAEAKTIDGYINPRQSVEVIGFENTVVIVRAV
soluble fraction (log2): 0.22

HMLEQSYYEKTDEIIELHGAKASSLIPVMQDVQAEYRYLPGELLSYIADKLGIPLAKAYSVATFYENFS
soluble fraction (log2): -0.951

HMDIGNKIKELRTEQKMTQSDLAERLGVTKSSISSYENGSRLPSYDILLKIARIFKVSTDILLG
soluble fraction (log2): -0.637

HMEETAFEKLSPLQKLRALGKPLTMINMRDGSQIAGSVQRSDDKFLYLDTGDGIAKLPVEEILRRTPM
soluble fraction (log2): 0.13

HMLRISEEVWALVEKTLREDWSPEQVSGKLKASGISVSHERIYQHIYADKRVGGTLWTHLRR
soluble fraction (log2): -0.767
